Assay results published in US6040149A, “Assay for identifying agents which act on the ceramide-activated protein kinase, kinase suppressor of ras, and methods of using said agents” (priority 1997, dated 2000).
Like-named read-outs stand apart in the source and are kept apart here.

How the values were obtained:
Raf-1 = experiment: Kinase activity of immunoprecipitated Raf-1 toward MEK1 after HL-60 cell stimulation; assay type: cell-based, human (HL-60 cells)
Procedure: Recovery of MEK1 was monitored by western blot (Bottom Panel). Identical results were obtained with cells stimulated for 5 min with TNF.
Recovery of MEK1 was monitored by western blot (Bottom Panel).
These studies indicate that Raf-1 is a component of the sphingomyelin pathway mediating TNF action.
MEK1 autophosphorylation was for 45 min. An autoradiogram of MEK1 phosphorylation (top panel) and recovery of MEK1 protein by western blot (bottom panel) are shown. For western blot, proteins separated by SDS-PAGE were electrotransferred to an Immobilon PVDF membrane at 12 volts overnight at 4° C. Membranes were then blocked with 2% BSA in TBS [20 mM Tris, pH 7.6, 137 mM NaCl] for 1 hr and washed with TBST (TBS containing 0.2% Tween-20).

KSR [1] = biological target: T1, KSR (Mus musculus, UniProt Q61097); experiment: Phosphorylation and activation of recombinant Raf-1 by KSR immunoprecipitated from treated COS-7 cells; assay type: cell-based, mouse (KSR expressed in COS-7 cells); details: C2-ceramide 1 μM; TNFα 10 nM
T1 sequence (Q61097 1-873): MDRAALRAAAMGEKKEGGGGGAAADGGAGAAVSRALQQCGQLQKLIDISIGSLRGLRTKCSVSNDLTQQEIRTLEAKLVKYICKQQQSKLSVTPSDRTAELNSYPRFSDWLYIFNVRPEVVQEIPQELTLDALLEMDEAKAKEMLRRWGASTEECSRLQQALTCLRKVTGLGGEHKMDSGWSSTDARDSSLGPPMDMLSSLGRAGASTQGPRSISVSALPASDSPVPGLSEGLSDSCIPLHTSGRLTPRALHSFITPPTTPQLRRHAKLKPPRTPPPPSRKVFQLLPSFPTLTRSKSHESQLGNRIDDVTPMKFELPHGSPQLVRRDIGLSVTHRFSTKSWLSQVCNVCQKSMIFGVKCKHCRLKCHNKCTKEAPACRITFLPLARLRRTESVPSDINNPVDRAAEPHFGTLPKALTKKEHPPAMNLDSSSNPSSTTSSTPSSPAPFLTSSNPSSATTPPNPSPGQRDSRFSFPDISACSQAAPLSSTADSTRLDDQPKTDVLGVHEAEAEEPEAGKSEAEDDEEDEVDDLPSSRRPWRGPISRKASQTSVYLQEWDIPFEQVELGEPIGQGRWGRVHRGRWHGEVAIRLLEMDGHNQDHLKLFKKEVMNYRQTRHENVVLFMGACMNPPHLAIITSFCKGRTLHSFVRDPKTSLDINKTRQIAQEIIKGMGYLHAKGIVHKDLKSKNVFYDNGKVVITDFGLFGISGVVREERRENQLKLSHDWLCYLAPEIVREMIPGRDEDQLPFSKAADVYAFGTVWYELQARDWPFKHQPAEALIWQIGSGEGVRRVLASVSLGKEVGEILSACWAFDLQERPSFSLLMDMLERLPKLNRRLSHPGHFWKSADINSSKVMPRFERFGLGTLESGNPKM
Procedure: FIGS. 23B-23C--COS-7 cells expressing Flag-tagged KSR were stimulated with 1 μM C2-ceramide for 10 min and lysed with NP-40 buffer as in FIG. 23A. […] The autoradiogram was exposed for 1 hour. Data represent one of three experiments.
COS-7 cells expressing Flag-tagged KSR were stimulated with 10 nM TNFα for the times indicated and lysed with NP-40 buffer as in FIG. 2A. […] The autoradiogram was exposed for 1 hour. Data represent one of three similar experiments.
Immunoprecipitated KSR was incubated with reaction buffer A containing 0.5 mM ATP and a protein kinase inhibitor cocktail [20 μM PKC inhibitor peptide (UBI), 2 μM protein kinase A inhibitor peptide (UBI) and 20 μM R24571 (Sigma)] for 30 min at 22° C.

[2] = test system: ceramide-activated protein kinase; details: for membrane-bound kinase activity, fold increase: TNF-α 30 nM
KSR [3] = biological target: T1, KSR; experiment: KSR activity toward Raf-1 peptides in vitro; assay type: biochemical, mouse (KSR immunoprecipitated from COS-7 cells); design: Raf-1 peptides as substrate
Method in brief: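 Flag-tagged KSR immunoprecipitated from COS-7 lysate, incubated with 0.3 mM Raf-1 TTLP peptide, 10 mM MnCl2, 5 μM ATP plus [γ-32P]ATP at 22 °C, with 30 nM ceramide or other lipids; P81 filter binding and Cerenkov counting, AALP-peptide background subtracted.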

TNF-α
kinase activity of Raf-1 toward MEK1 (Raf-1; HL-60 cells treated with TNF or ceramide analogs): 10-20 fold | activity of immunoprecipitated KSR to phosphorylate and activate Raf-1 (KSR [1]): stimulated dramatically | kinase activity, fold of control ([2]; 3 pM TNF-α, 60 minutes): 1.1 fold of control | maximal kinase activity, fold of control ([2]; 30 nM TNF-α, 60 minutes): 1.8 fold of control | ED50 for kinase activity ([2]; 60 minutes of stimulation): ≈ 200 pM | membrane-bound kinase activity, fold increase ([2]; 5 minutes): 1.5 fold | membrane-bound kinase activity, fold increase ([2]; 2 hours): 2.2 fold | membrane-bound kinase activity, fold increase ([2]; 2 hours, listed as TNF): 2 fold

CCCCCCCCCCCCCC(=O)O[C@@H]1[C@@H](C)[C@@]2(O)[C@@H](C=C(CO)C[C@]3(O)C(=O)C(C)=C[C@@H]23)[C@@H]2C(C)(C)[C@]12OC(C)=O [TPA, 12-0-tetradecanoylphorbol-13-acetate]
increase of Raf-1 activity (Raf-1; TPA 100 ng/ml, 10 min, maximum): 4 fold of control | effect on activation of KSR towards Raf-peptide (KSR [3]; 30 nM): no effect

CCCCCCCCCCCCC/C=C/[C@@H](O)[C@@H](N)CO [sphingosine]
effect on kinase activity in membranes of stimulated HL-60 cells ([2]; cholera toxin 10 nM, retinoic acid 0.5 μM, butyrate 0.5 mM): similarly as effective as C8-cer | activation of KSR (KSR [3]): fail to activate KSR
